Assay results: patent publication US12144869B2, “Anti-ROR1 antibody conjugates, compositions comprising anti ROR1 antibody conjugates, and methods of making and using anti-ROR1 antibody conjugates” (Sutro Biopharma, Inc., priority 2022, dated 2024)

Legend:
human ROR1-Fz = molecular target: T1, human ROR1-Fz (Homo sapiens, UniProt Q01973); assay: Biacore off-rate and kinetic analysis, ROR1-Fz; assay type: binding; details: for Biacore human ROR1-Fz ka / Biacore human ROR1-Fz kd: Table 11, SP34 light chain
T1 construct: Frizzled (Fz, residues 165-305); His6 (C); purchased Acro Biosystems; host or cells: HEK293
Procedure: Anti-Fc polyclonal antibodies were immobilized onto a CMS chip (GE Life Sciences) using amine coupling chemistry (from Amine Coupling Kit, GE Life Sciences). The immobilization steps were carried out at a flow rate of 25 μL/min in 1×HBS-EP+buffer (GE Life Sciences; 10× Stock diluted before use). The sensor surfaces were activated for 7 min with a mixture of NHS (0.05 M) and EDC (0.2 M). The Anti-Fc antibodies were injected over all 4 flow cells at a concentration of 25 ug/ml in 10 mM sodium acetate, pH 4.5, for 7 min. Ethanolamine (1 M, pH 8.5) was injected for 7 min to block any remaining activated groups. An average of 12,000 response units (RU) of capture antibody was immobilized on each flow cell.
Off-rate and kinetic binding experiments were performed at 25° C. using 1×HBS-EP+buffer. Test and control antibodies were injected over the anti-Fc surface at concentrations of 5-10 μg/mL for 12 seconds at a flow rate of 10 μL/min on flow cells 2, 3 and 4, followed by a buffer wash for 30 seconds at the same flow rate. Kinetic characterization of antibody samples was carried out with a range of antigen concentrations from 1-100 nM and 1 injection of 0 nM antigen (for example, 100, 50, 25, 6.25, 1.56 and 0 nM). After capturing ligand (antibody) on the anti-Fc surface, the analyte (hROR1, Fz or Kr domains, Acro Biosystems, Delaware) was bound for 180 seconds, followed by a 600 second dissociation phase at a flow rate of 50 μL/min. Between each ligand capture and analyte binding cycle, regeneration was carried out using 2 injections of 10 mM Glycine pH 2.0 for 30 seconds at 30 μL/min, followed by a 30 second buffer wash step.
The data was fit with the Biacore T200 Evaluation software, using a 1-1 Langmuir binding model. KD (affinity, nM) was determined as a ratio of the kinetic rate constants calculated from the fits of the association and dissociation phases.
For anti-CD3-LC-containing IgGs that had detectable ROR1-binding in ELISA (1944-A07 and 1987-C05 variants), those antibodies were further tested for binding by surface plasmon resonance (SPR). Binding kinetics were assessed to the ROR1-frizzled domain (hROR1-Fz) or the ROR1-extracellular domain (hROR1) for 1944-A07 and 1987-C05 variants, respectively. Briefly, anti-ROR1 antibodies were captured via anti-human Fc polyclonal antibodies immobilized to a CM5 chip, and ROR1 recombinant proteins were flowed across the surface to assess binding kinetics. hROR1 or hROR1-Fz domain (Acro Biosystems, Delaware) binding was tested at 100, 50, 25, 6.25, 1.5625 nM. The data was fit with the Biacore™ T200 Evaluation software, using a 1-1 Langmuir binding model. KD (affinity, nM) was determined as a ratio of the kinetic rate constants calculated from the fits of the association and dissociation phases.

[1] = Differential scanning fluorimetry (protein thermal shift; TM1/TM2); assay type: physicochemical; details: Table 11; melting temperature of the Fab domain
Procedure: A protein thermal shift assay was carried out by mixing the protein to be assayed with an environmentally sensitive dye (SYPRO Orange, Life Technologies Cat #S-6650) in a phosphate buffered solution (PBS), and monitoring the fluorescence of the mixture in real time as it underwent controlled thermal denaturation. Protein solutions between 0.2-2 mg/mL were mixed at a 1-1 volumetric ratio with a 1-500 PBS-diluted solution of SYPRO Orange (SYPRO Orange stock dye is 5000× in DMSO). 10 μL aliquots of the protein-dye mixture were dispensed in quadruplicate in a 384-well microplate (Bio-Rad Cat #MSP-3852), and the plate was sealed with an optically clear sealing film (Bio-Rad Cat #MSB-1001) and placed in a 384-well plate real-time thermocycler (Bio-Rad CFX384 Real Time System). The protein-dye mixture was heated from […], at increments of 0.1° C. per cycle (˜1.5° C. per minute), allowing 3 seconds of equilibration at each temperature before taking a fluorescence measurement. At the end of the experiment, the transition melting temperatures (TM1 and TM2) were determined using the Bio-Rad CFX manager software. TM1 represents the melting temperature of the Fc domain. TM2 represents the melting temperature of the Fab domain.
For the thermal stability of an antibody, the first melting peak (Tm1) coincides with the unfolding of the CH2 domain (FC stability), while the second melting peak (Tm2) occurs upon unfolding of the Fab domain.

[2] = Table 7, sample ROR1 Fz, 1944-A07 HC with different LCs

T1 sequence (Q01973 165-305): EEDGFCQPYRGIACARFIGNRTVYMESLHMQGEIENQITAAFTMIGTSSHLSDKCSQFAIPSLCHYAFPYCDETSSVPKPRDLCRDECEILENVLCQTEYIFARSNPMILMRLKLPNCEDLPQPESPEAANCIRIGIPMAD

B1: 1944-A07 HC w/hUCHT1 LC3: HC of lead antibody 1944-A07 co-expressed with the LC of anti-CD3 antibody "hUCHT1-LC3" (antibody, V domains shown)
VH: EVQLVESGGGLVQPGGSLRLSCAASGFNITGYYIHWVRQAPGKGLEWVGYISPNSGSTYYADSVKGRFTISADTSKNTAYLQMNSLRAEDTAVYYCARDSRRYVRPFDYWGQGTLVTVSS
VL: DIQMTQSPSTLSASVGDRVTITCRASQDIRNYLNWYQQKPGKAPKLLIYYTSRLHSGVPSRFSGSGSGTEYTLTISSLQPDDFATYYCQQGNTLPWTFGGGTKVEIK
ka1 (human ROR1-Fz; [2]): 1.85e+06 M⁻¹ s⁻¹ | kd1 (human ROR1-Fz; [2]): 0.119 s⁻¹ | KD (SPR binding kinetics) (human ROR1-Fz; hROR1-Fz, 1944-A07 variants): binding was not detected

B2: SRP2196-A05 (antibody, V domains shown)
VH: EVQLVESGGGLVQPGGSLRLSCAASGFNITNYYIHWVRQAPGKGLEWVGYISPNSGATYQADSVKGRFTISADTSKNTAYLQMNSLRAEDTAVYYCARDSRRYVRSWDYWGQGTLVTVSS
VL: QAVVTQESALTTSPGETVTLTCRSSTGAVTTSNYANWVQEKPDHLFTGLIGGTNKRAPGVPARFSGSLIGDKAALTITGAQTEDEAIYFCALWYSNLWVFGGGTKLTVL
TM2 (° C.) [1]: 71 °C | Biacore human ROR1-Fz ka (human ROR1-Fz): 175000 M⁻¹ s⁻¹ | Biacore human ROR1-Fz kd (human ROR1-Fz): 0.000682 s⁻¹

B3: SRP2196-A02 (antibody, V domains shown)
VH: EVQLVESGGGLVQPGGSLRLSCAASGFNITGYYIHWVRQAPGKGLEWVGQISPNSGATHDADSVKGRFTISADTSKNTAYLQMNSLRAEDTAVYYCARDSRRYVRGWDYWGQGTLVTVSS
VL: QAVVTQESALTTSPGETVTLTCRSSTGAVTTSNYANWVQEKPDHLFTGLIGGTNKRAPGVPARFSGSLIGDKAALTITGAQTEDEAIYFCALWYSNLWVFGGGTKLTVL
TM2 (° C.) [1]: 71 °C

B4: SRP2196-A08 (antibody, V domains shown)
VH: EVQLVESGGGLVQPGGSLRLSCAASGFNITGYYIHWVRQAPGKGLEWVGYISPNSGSTYKADSVKGRFTISADTSRNTAYLQMNSLRAEDTAVYYCARDSRRYVRSWDYWGQGTLVTVSS
VL: QAVVTQESALTTSPGETVTLTCRSSTGAVTTSNYANWVQEKPDHLFTGLIGGTNKRAPGVPARFSGSLIGDKAALTITGAQTEDEAIYFCALWYSNLWVFGGGTKLTVL
TM2 (° C.) [1]: 69 °C | Biacore human ROR1-Fz ka (human ROR1-Fz): 183000 M⁻¹ s⁻¹ | Biacore human ROR1-Fz kd (human ROR1-Fz): 0.00078 s⁻¹

B5: 1944-A07 HC w/hSP34 LC3: HC of lead antibody 1944-A07 co-expressed with the LC of anti-CD3 antibody "hSP34-LC3" (antibody, V domains shown)
VH: EVQLVESGGGLVQPGGSLRLSCAASGFNITGYYIHWVRQAPGKGLEWVGYISPNSGSTYYADSVKGRFTISADTSKNTAYLQMNSLRAEDTAVYYCARDSRRYVRPFDYWGQGTLVTVSS
VL: QTVVTQEPSLTVSPGGTVTLTCGSSTGAVTSGYYPNWFQQKPGQAPRGLIGGTKFLAPGTPARFSGSLLGGKAALTLSGVQPEDEAEYYCALWYSNRWVFGGGTQLTVTG
ka1 (human ROR1-Fz; [2]): 360000 M⁻¹ s⁻¹ | kd1 (human ROR1-Fz; [2]): 0.00228 s⁻¹

B6: SRP2196-A04 (antibody, V domains shown)
VH: EVQLVESGGGLVQPGGSLRLSCAASGFNISPYYIHWVRQAPGKGLEWVGQIYPISGHTYQADSVKGRFTISADTSKNTAYLQMNSLRAEDTAVYYCARESRRYVGPFGYWGQGTLVTVSS
VL: QAVVTQESALTTSPGETVTLTCRSSTGAVTTSNYANWVQEKPDHLFTGLIGGTNKRAPGVPARFSGSLIGDKAALTITGAQTEDEAIYFCALWYSNLWVFGGGTKLTVL
Biacore human ROR1-Fz ka (human ROR1-Fz): 139000 M⁻¹ s⁻¹ | Biacore human ROR1-Fz kd (human ROR1-Fz): 0.000343 s⁻¹

B7: SRP2196-A01 (antibody, V domains shown)
VH: EVQLVESGGGLVQPGGSLRLSCAASGFNITGYYIHWVRQAPGKGLEWVGQISPNSGYTYYADSVKGRFTISADTSKNTAYLQMNSLRAEDTAVYYCARDSRRYVRGWDYWGQGTLVTVSS
VL: QAVVTQESALTTSPGETVTLTCRSSTGAVTTSNYANWVQEKPDHLFTGLIGGTNKRAPGVPARFSGSLIGDKAALTITGAQTEDEAIYFCALWYSNLWVFGGGTKLTVL
TM2 (° C.) [1]: 74 °C

B8: SRP2196-A06 (antibody, V domains shown)
VH: EVQLVESGGGLVQPGGSLRLSCAASGFNITGYYIHWVRQAPGKGLEWVGQISPNSGSTHQADSVKGRFTISADTSKNTAYLQMNSLRAGDTAVYYCARDSRRYVRGWDYWGQGTLVTVSS
VL: QAVVTQESALTTSPGETVTLTCRSSTGAVTTSNYANWVQEKPDHLFTGLIGGTNKRAPGVPARFSGSLIGDKAALTITGAQTEDEAIYFCALWYSNLWVFGGGTKLTVL
TM2 (° C.) [1]: 70 °C | Biacore human ROR1-Fz ka (human ROR1-Fz): 180000 M⁻¹ s⁻¹ | Biacore human ROR1-Fz kd (human ROR1-Fz): 0.00069 s⁻¹

B9: 1944-A07 HC w/hOKT3 LC1: HC of lead antibody 1944-A07 co-expressed with the LC of anti-CD3 antibody "hOKT3-LC1" (antibody, V domains shown)
VH: EVQLVESGGGLVQPGGSLRLSCAASGFNITGYYIHWVRQAPGKGLEWVGYISPNSGSTYYADSVKGRFTISADTSKNTAYLQMNSLRAEDTAVYYCARDSRRYVRPFDYWGQGTLVTVSS
VL: DIQMTQSPSSLSASVGDRVTITCSASSSVSYMNWYQQKPGKAPKRLIYDTSKLASGVPSRFSGSGSGTEYTLTISSLQPEDFATYYCQQWSSNPFTFGQGTKLEIK
KD (human ROR1-Fz; [2]): Not detected

B10: SRP2196-B05 (antibody, V domains shown)
VH: EVQLVESGGGLVQPGGSLRLSCAASGFNITGYYIHWVRQAPGKGLEWVGQISPNSGATYHADSVKGRFTISADTSKNTAYLQMNSLRAEDTAVYYCARDSRRYVRGWDYWGQGTLVTVSS
VL: QAVVTQESALTTSPGETVTLTCRSSTGAVTTSNYANWVQEKPDHLFTGLIGGTNKRAPGVPARFSGSLIGDKAALTITGAQTEDEAIYFCALWYSNLWVFGGGTKLTVL
TM2 (° C.) [1]: 73 °C

B11: SRP1944-A07 w SP34 LC3: "initial antibody leads constructed with an SP34 light chain" (antibody, V domains shown)
VH: EVQLVESGGGLVQPGGSLRLSCAASGFNITGYYIHWVRQAPGKGLEWVGYISPNSGSTYYADSVKGRFTISADTSKNTAYLQMNSLRAEDTAVYYCARDSRRYVRPFDYWGQGTLVTVSS
VL: QTVVTQEPSLTVSPGGTVTLTCGSSTGAVTSGYYPNWFQQKPGQAPRGLIGGTKFLAPGTPARFSGSLLGGKAALTLSGVQPEDEAEYYCALWYSNRWVFGGGTQLTVTG
Biacore human ROR1-Fz ka (human ROR1-Fz): 597000 M⁻¹ s⁻¹ | Biacore human ROR1-Fz kd (human ROR1-Fz): 0.0085 s⁻¹
